From patent US20180045721A1

Biological target: streptavidin, P22629
Experiment: SPR, BIAcore X100, streptavidin coupled to the chip, peptide in solution

Chain of streptavidin, P22629 (P22629 37-163 limits assumed): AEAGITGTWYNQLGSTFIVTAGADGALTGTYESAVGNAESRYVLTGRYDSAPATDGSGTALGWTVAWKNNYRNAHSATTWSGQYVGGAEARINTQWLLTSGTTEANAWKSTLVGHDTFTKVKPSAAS

NQPWQ (modifications not checked) [head-to-tail cyclic NQpWQ peptide]
Kd: 61.3 µM

LYDHPQNGGQ (modifications not checked)
Kd: 9.4 µM

H-LYDHPQNGGQ-OH
Kd: 100 µM

QNDHPQNGGQ (modifications not checked)
Kd: 10.8 µM

H-QNDHPQNGGQ-OH
Kd: 320 µM
